Data published in US20080166749A1, “Fluorescent Protein Sensors of Post-Translational Modifications” (INVITROGEN CORPORATION, priority 1998, published 2008).
Where no end group is shown, it is not given here.

Assays:
[1] = molecular target: T1, protein kinase A catalytic subunit (Mus musculus, UniProt P05132); experiment: Change in fluorescence after incubation with excess protein kinase A; type: biochemical; conditions: one hour at 30° C., 488 nm excitation, 511 nm emission; for % Change in fluorescence upon phosphorylation: more drastically altered N-terminal sites, excess PKA catalytic subunit; for % Change in fluorescence: excess protein kinase A catalytic subunit
Protocol: (§1) Numbers prior to the sequence indicate amino acid position in wild type GFP (SEQ ID NO:2) where phosphorylation motif starts. The relative rates of phosphorylation compare the rate of phosphorylation of the given phosphorylation motif with the endogenous protein kinase A phosphorylation motif in Aequorea GFP (HKFSV, SEQ ID NO:1) measured by incorporation of ^32P after incubation of the purified substrate and protein kinase A catalytic subunit in the presence of ^32P-labeled ATP using 3 micrograms of GFP, 5 micrograms protein kinase A catalytic subunit, for 10 minutes at 30° C. in standard phosphorylation buffer (20 mM MOPS, pH 6.5, 100 mM KCl, 100 micromolar ATP, 3 mM MgC2, 1 mM DTT and 100 microCi ^32P-labeled ATP. Reactions were terminated by blotting onto phosphocellulose paper and washing with 10% phosphoric acid. The percent change in fluorescence represents the increase in fluorescence (475 nm excitation, 510 nm emission) observed in each purified protein resulting from incubation with excess protein kinase A catalytic subunit for one hour at 30° C. using the same phosphorylation conditions as described above except that no ^32P labeled ATP was present and that after the reaction time was complete, samples were analyzed in a fluoromiter rather than blotted onto phosphocellulose paper.
(§2) Numbers prior to the sequence indicate amino acid position in the wild type GFP where the phosphorylation motif starts. The relative rates of phosphorylation compare the rate of phosphorylation of the given phosphorylation motif with the endogenous protein kinase A phosphorylation motif in Aequorea GFP (HKFSV) measured by incorporation of ^32P after incubation of the purified substrate and protein kinase A catalytic subunit in the presence of ^32P-labeled ATP using the standard protocols described above. The percentage change in fluorescence represents the change in fluorescence (488 nm excitation, 511 nm emission) observed in each purified protein as a result of incubation with excess protein kinase A catalytic subunit for one hour at 30° C. using phosphorylation conditions described above. […] To improve the effect of phosphorylation on fluorescence, amino acids around the phosphorylation site were mutated to create an optimal phosphorylation sequence even if it disordered the existing local tertiary structure. Such disruption was predicted and found to decrease the basal fluorescence of these constructs in their non-phosphorylated state (Table VI).
Numbers prior to the sequence indicate amino acid position in wild type GFP where the phosphorylation site starts. Negative numbers indicate extensions onto the wild-type N-terminus. The percent change in fluorescence represents the change in fluorescence (488 nm excitation, 511 nm emission) observed in each purified protein resulting from incubation with excess protein kinase A catalytic subunit for one hour at 30° C. using standard phosphorylation conditions described earlier.

[2] = molecular target: T1, protein kinase A catalytic subunit; experiment: Relative rate of phosphorylation by protein kinase A, ^32P incorporation; type: biochemical; conditions: relative to endogenous PKA motif HKFSV; sites inserted at the N-terminus of S65T GFP
Protocol: as §1, §2

[3] = Fluorescent properties of mutants of Aequorea green fluorescent protein (Table I); type: physicochemical
[4] = system: activated recombinant MAP kinase; experiment: Phosphorylation of GFP Erk sensors by MAP kinase, ^32P incorporation; type: biochemical; conditions: for ^32P-Incorporation (CPM): 10 μM substrate, 100 ng MAP kinase, 30 minutes at 30° C., mean ± standard deviation of triplicates
Excerpt: Experiments were terminated and samples processed as described previously in subsection D.4. Results presented in Table X represent means of triplicate determinations ±standard deviations of ^32P-incorporation in washed pellets as described earlier.

Erk-1 kinase = Erk-1 kinase (Homo sapiens, UniProt P27361); experiment: Fluorescence change of Erk substrates after phosphorylation and acetate quench; type: biochemical; conditions: 2 μM GFP, 1 μg Erk-1 kinase, 1 hour at 30° C.; 3 hours in acetate quenching buffer pH 5.0
Chain of Erk-1 kinase (P27361 whole entry): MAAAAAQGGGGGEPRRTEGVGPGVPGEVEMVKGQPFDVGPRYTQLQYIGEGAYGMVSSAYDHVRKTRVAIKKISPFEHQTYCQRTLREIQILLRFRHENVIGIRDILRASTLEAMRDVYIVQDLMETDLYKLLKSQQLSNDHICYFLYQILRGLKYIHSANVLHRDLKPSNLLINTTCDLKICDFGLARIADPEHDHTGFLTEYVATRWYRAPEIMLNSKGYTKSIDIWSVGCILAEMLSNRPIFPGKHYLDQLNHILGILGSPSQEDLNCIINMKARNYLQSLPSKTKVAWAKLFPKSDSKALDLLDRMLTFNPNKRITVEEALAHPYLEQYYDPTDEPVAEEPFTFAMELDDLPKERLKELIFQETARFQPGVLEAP
Protocol: These experiments were performed by incubating the GFP sample (2 μM) with Erk-1 kinase (1 μg) for 1 hour at 30° C. in assay buffer (20 mM MOPS, pH 7.2, 25 mM beta-glycerol phosphate, 5 mM EGTA, 1 mM DTT, 1 mM ATP, 20 mM MgCl2). Reactions were quenched by the addition of acetate quenching buffer (100 μL of 100 mM Acetate pH 5.0, 100 mM NaCl, 20 mM beta-Glycerol phosphate). Fluorescence changes were measured after 3 hours of incubation in acetate quenching buffer. Results represent the means of triplicate determinations.

Compound | % Change in fluorescence [1] [%] | Relative rates of phosphorylation [2] | ^32P-Incorporation (CPM) [4] [CPM] | other results
1IMRRRRSI1: S65T GFP with N-terminal phosphorylation site MRRRRSII (not fully specified (C-terminus); printed as 1IMRRRRSI1) | – | – | – | % Change in fluorescence upon phosphorylation [1]: 70%; % Change in fluorescence upon phosphorylation ([1]; listed as 1MRRRRSII): about 70%
1MRDSCLF: S65T GFP with N-terminal phosphorylation site MRDSCLF (not fully specified (C-terminus); printed as 1MRDSCLF) | 17 | 3.7 | – | –
1MRKGSCLF: S65T GFP with N-terminal phosphorylation site MRKGSCLF (not fully specified (C-terminus); printed as 1MRKGSCLF) | 5.7 | 5.1 | – | –
1MRKGSLLF: S65T GFP with N-terminal phosphorylation site MRKGSLLF (not fully specified (C-terminus); printed as 1MRKGSLLF) | 8.0 | 1.6 | – | –
1MRRESLLF: S65T GFP with N-terminal phosphorylation site MRRESLLF (not fully specified (C-terminus); printed as 1MRRESLLF) | 6.0 | 3.0 | – | –
1MSKRRDSL: GFP with N-terminal phosphorylation site MSKRRDSL; 7% of wild type fluorescence (not fully specified (C-terminus); printed as 1MSKRRDSL) | 5.1 | 5.5 | – | –
1MSRRDSCF: S65T GFP with N-terminal phosphorylation site MSRRDSCF (not fully specified (C-terminus); printed as 1MSRRDSCF) | 25 | 2.1 | – | –
O=C(Nc1ccccc1-c1ccc(Cl)cc1)c1cccnc1Cl [Emerald] | – | – | – | Emission Max [3]: 508 nm; Excitation Max [3]: 487 nm
Erk-1: GFP mutant K8 with Erk kinase motif Met Val Glu Pro Leu Thr Pro Ser Phe (MVEPLTPSF; not fully specified; printed as Met Val Glu Pro Leu Thr Pro Ser Phe) | – | – | 1579 ± 282 | –
Erk-4: GFP mutant K8 with Erk kinase motif Met Thr Gly Pro Leu Ser Pro Gly Phe (MTGPLSPGF; not fully specified; printed as Met Thr Gly Pro Leu Ser Pro Gly Phe) | – | – | 1982 ± 260 | –
Erk-5: GFP mutant K8 with Erk kinase motif Met Thr Gly Pro Leu Ser Pro Gly Tyr (MTGPLSPGY; not fully specified; printed as Met Thr Gly Pro Leu Ser Pro Gly Tyr) | – | – | 6455 ± 558 | –
Erk-6: GFP mutant K8 with Erk kinase motif Met Thr Gly Pro Leu Ser Pro Gly Leu (MTGPLSPGL; not fully specified; printed as Met Thr Gly Pro Leu Ser Pro Gly Leu) | – | – | 22498 ± 381 | Fold Increase in Fluorescence after Phosphorylation (Erk-1 kinase): 1.20 fold
Erk-7: GFP mutant K8 with Erk kinase motif Met Thr Gly Pro Leu Ser Pro Gly Pro (MTGPLSPGP; not fully specified; printed as Met Thr Gly Pro Leu Ser Pro Gly Pro) | – | – | 25502 ± 2077 | Fold Increase in Fluorescence after Phosphorylation (Erk-1 kinase): 1.05 fold; Km ([4]; kinetic analysis): 15 µM
Wild type: wild-type Aequorea green fluorescent protein, SEQ ID NO:2 | – | – | – | Emission Max [3]: 508 nm; Excitation Max [3]: 395 nm; Extinction Coefficient [3]: 21,000 M − 1 cm − 1; Quantum Yield [3]: 0.77
−1MRRRRSIII: S65T GFP with N-terminal phosphorylation site MRRRRSIII, N-terminus extended by one (not fully specified (C-terminus); printed as −1MRRRRSIII) | – | – | – | % Change in fluorescence upon phosphorylation [1]: 43%; % Change in fluorescence upon phosphorylation ([1]; listed as MRRRRSIII): about 70%
−2MRRRRSIIIF: S65T GFP with N-terminal phosphorylation site MRRRRSIIIF, N-terminus extended by two (not fully specified (C-terminus); printed as −2MRRRRSIIIF) | – | – | – | % Change in fluorescence upon phosphorylation [1]: 15%
